Source: patent US20240400663A1 (Regeneron, published 2024)

B1: H1H29127P (antibody, V domains shown)
VH: QVQLVESGGGVVQPGRSLRLSCAASGFTFSSYGMHWVRQAPGKGLEWVAAIWYDGSNKYYADSVKGRFTISRDNSKNTLYLQMNSLRAEDTAVYFCARGEHYYGSGPFDPWGQGTLVTVSS
VL: DIQMTQSPSSLSASVGDRVTITCRASQSISNYLNWYQQKPGKAPKLLIFAASSLQSGVPSRFSGSGSGTDFTLTISSLQPEDFATYYCQQSYSSPLTFGGGTKVEIKR
B2: H1H29209P2 (antibody, V domains shown)
VH: QLQLQESGPGLVKPSETLSLTCTVSGGSISSRSHYWGWIRQPPGKGLEWIGSIYYSGSTYYNPSLKSRVTISVDTSKNQFSLKLSSVTAADTAVYYCARLGWYAEEAFEIWGQGTMVTVSS
VL: not shown
B3: H1H29214P2 (antibody, V domains shown)
VH: QLQLQESGPGLVKPSETLSLTCTVSGGSISSSSYYWGWIRQPPGKGLEWIGSIYYSGSTYYNPSLKSRVTISVDTSKNQFSLKLSSVTAADTAVYYCARQGRWERENFDYWGQGTLVTVSS
VL: not shown
B4: H1H29198P2 (antibody, V domains shown)
VH: QVQLVQSGAEVKKPGASVKVSCKVSGYTLTELSMHWVRQAPGKGLEWMGGFDPEHGKIIYAQKFQGRVTMTEDTSTDTAYMELSSLRSEDTAVYYCATFYNWNSYYFGMDVWGHGTTVTVSS
VL: not shown
B5: H1H29187P2 (antibody, V domains shown)
VH: QVQLVESGGGVVQPGRFLRLSCAASGFTFSNSGMHWVRQAPGKGLEWVAGIWHDGSYKYYVDSVKGRFTISRDNSKNTLFLQMNSLRAEDTAVYYCARDDYYASGTSVDVWGQGTTVTVSS
VL: not shown
B6: H1H29207P2 (antibody, V domains shown)
VH: EVQLVESGGGLVQPGGSLRLSCAASGFTFSSYAMNWVRQAPGKGLEWVSAVSGSADITNYADSVKGRFTISRDNSKHTLYLQMNSLRAEDTAVYYCAKDKVYNWNYGIYYGMDVWGQGTTVTVSS
VL: not shown

What was measured:
Experiment in all cases: cell-based or functional assay
[1] = target: PfRH5 of Plasmodium falciparum strain W2-mef (on live parasites) (Plasmodium falciparum)
[2] = target: T1, PfRH5 of Plasmodium falciparum strain FCR-1/FVO (on live parasites) (Plasmodium falciparum)
[3] = target: T2, PfRH5 of Plasmodium falciparum strain 7G8 (on live parasites) (Plasmodium falciparum)
[4] = target: PfRH5 of Plasmodium falciparum strain RF7 (on live parasites) (Plasmodium falciparum)
[5] = target: PfRH5 of Plasmodium falciparum strain HB3 (on live parasites) (Plasmodium falciparum)
[6] = target: PfRH5 of Plasmodium falciparum strain Cam3.II (on live parasites) (Plasmodium falciparum)
[7] = target: T3, PfRH5 of Plasmodium falciparum strain Dd2 (on live parasites) (Plasmodium falciparum)
[8] = target: PfRH5 of Plasmodium falciparum strain D10 (on live parasites) (Plasmodium falciparum)
[9] = target: T3, PfRH5 of Plasmodium falciparum strain …; remark: listed apart in the source
[10] = target: T1, PfRH5 of Plasmodium falciparum strain …; remark: listed apart in the source
[11] = target: T2, PfRH5 of Plasmodium falciparum strain …; remark: listed apart in the source

Binder | Max growth inhibition (%) W2-mef [1] [%] | Max growth inhibition (%) FCR-1/FVO [2] [%] | Max growth inhibition (%) 7G8 [3] [%] | Max growth inhibition (%) RF7 [4] [%] | Max growth inhibition (%) HB3 [5] [%] | Max growth inhibition (%) Cam3.II [6] [%] | Max growth inhibition (%) Dd2 [7] [%] | Max growth inhibition (%) D10 [8] [%] | Maximum growth inhibition (%) Dd2 [9] [%] | Percent Maximum Growth Inhibition, FCR-1/FVO, mAb (6.67 µM) + AHIS (10%) [10] [%] | Percent Maximum Growth Inhibition, FCR-1/FVO, mAb (6.67 µM) + ANS (10%) [10] [%] | Percent Maximum Growth Inhibition, FCR-1/FVO, mAb (6.67 µM) + HHIS (10%) [10] [%] | Percent Maximum Growth Inhibition, FCR-1/FVO, mAb (6.67 µM) + HNS (10%) [10] [%] | Percent Maximum Growth Inhibition, FCR-1/FVO, mAb (6.67 µM) + No serum [10] [%] | Max growth inhibition (%) 7G8, no chloroquine [11] [%]
B1 | 53.6 | 61.1 | 61.2 | 25.7 | 59.4 | 47 | 64.7 | 74.4 | 56.9 |  |  |  |  |  | 
B2 | 39.6 | 19.2 | 49.9 | 11.9 | 52.4 | 47.3 | 38.1 | 72.7 |  |  |  |  |  |  | 
B3 | 52.7 | 13.1 | 56.7 | 11.2 | 59.1 | 46.7 | 47.2 | 76.5 |  |  |  |  |  |  | 
B4 | -3.61 | 11.1 | 5.31 | 1.53 | 15.5 | 14.7 | 10.1 | 4.38 |  |  |  |  |  |  | 
B5 | 67.3 | 72.2 |  | 32.7 | 63.9 | 49.2 | 66 | 79.6 |  | 89.4 | 80.1 | 85.4 | 85.9 | 85.3 | 49.3
B6 | 65.2 | 69.2 | 58.7 | 31.1 | 49.3 | 45.3 | 61.3 | 73.9 |  |  |  |  |  |  | 
